Measurements published in the RNAGym collection of RNA variant scans (doi:10.1093/molbev/msab373).

B1: Azoarcus group I ribozyme (parent)
chain: GUGCCUUGCGCCGGGAAACCACGCAAGGGAUGGUGUCAAAUUCGGCGAAACCUAAGCGCCCGCCCGGGCGUAUGGCAACGCCGAGCCAAGCUUCGGCGCCUGCGCCGAUGAAGGUGUAGAGACUAGACGGCACCCACCUAAGGCAAACGCUAUGGUGAAGGCAUAGUCCAGGGAGUGGCGAAAGUCACACAAACCGG

Variants of: B1
Assay: reverse-splicing fitness (ratio to wild type); higher = more active; in vitro selection; Mg2+ level not given
Method in brief: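 An in vitro group I ribozyme library with randomized positions was T7-transcribed and gel-purified. In triplicate, 10 pmol RNA in EPPS pH 7.5 was reacted with 50 pmoles of a 30-nt RNA substrate for 1 h at 37 °C across several added MgCl2 levels (1–48 mM), then stopped with EDTA. Products were reverse transcribed from a substrate-complementary primer, PCR-amplified and sequenced (HiSeq 4000). Fitness is a variant's read proportion after selection over that before, normalised to wild type.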

Q: For C82U A111C C150G C169G, which reverse-splicing fitness is on record?
A: 0.00661

Q: For C82U A111C C150G C169A, which reverse-splicing fitness is on record?
A: 0.00807

Q: With C82U A111C C150G C169U as the variant, how does the reverse-splicing fitness read?
A: 0.00902

Q: For C82U A111C C150U C169A U176G, which reverse-splicing fitness is on record?
A: 0.008

Q: With C82U A111C C150U C169A U176A as the variant, how does the reverse-splicing fitness read?
A: 0.0124

Q: For C82U A111C C150U C169A U176C, which reverse-splicing fitness is on record?
A: 0.0134

Q: For C82U A111C U176A, which reverse-splicing fitness is on record?
A: 0.0847

Q: For C82U A111C U176C, which reverse-splicing fitness is on record?
A: 0.104

Q: With C82U A111C U176G as the variant, how does the reverse-splicing fitness read?
A: 0.02

Q: With C82U A111G A120C A145C C150A C169A U176A as the variant, how does the reverse-splicing fitness read?
A: 0.0104

Q: With C82U A111G A120C A145C C150A C169A U176G as the variant, how does the reverse-splicing fitness read?
A: 0.00444

Q: With C82U A111G A120C A145C C150A C169A U176C as the variant, how does the reverse-splicing fitness read?
A: 0.00523

Q: With C82U A111G A120C A145U C150A C169U U176A as the variant, how does the reverse-splicing fitness read?
A: 0.0139

Q: Which reverse-splicing fitness does the source give for C82U A111G A120C A145U C150A C169U U176G here?
A: 0.00404

Q: For C82U A111G A120C A145U C150A C169U U176C, which reverse-splicing fitness is on record?
A: 0.0132

Q: For C82U A111G A120C A145C C150G C169G U176A, which reverse-splicing fitness is on record?
A: 0.00761

Q: Which reverse-splicing fitness does the source give for C82U A111G A120C A145C C150G C169G U176C here?
A: 0.004

Q: For C82U A111G A120C A145C C150G C169G U176G, which reverse-splicing fitness is on record?
A: 0.00397

Q: With C82U A111G A120C A145G C169U as the variant, how does the reverse-splicing fitness read?
A: 0.0129

Q: With C82U A111G A120C A145G C169A as the variant, how does the reverse-splicing fitness read?
A: 0.00713

Q: For C82U A111G A120C A145G C169G, which reverse-splicing fitness is on record?
A: 0.00801

Q: With C82U A111C C150A C169G as the variant, how does the reverse-splicing fitness read?
A: 0.00852

Q: For C82U A111C C150A C169U, which reverse-splicing fitness is on record?
A: 0.0106

Q: For C82U A111C C150A C169A, which reverse-splicing fitness is on record?
A: 0.00994

Q: For C82U A111C A145G C169A U176C, which reverse-splicing fitness is on record?
A: 0.0298

Q: Which reverse-splicing fitness does the source give for C82U A111C A145G C169A U176G here?
A: 0.00741

Q: With C82U A111C A145G C169A U176A as the variant, how does the reverse-splicing fitness read?
A: 0.0231

Q: Which reverse-splicing fitness does the source give for C82U A111G A120C A145C C169A U176G here?
A: 0.003

Q: With C82U A111G A120C A145C C169A U176C as the variant, how does the reverse-splicing fitness read?
A: 0.00404

Q: For C82U A111G A120C A145C C169A U176A, which reverse-splicing fitness is on record?
A: 0.00738

Q: For C82U A111G A120C A145C C150G C169U U176A, which reverse-splicing fitness is on record?
A: 0.00787

Q: For C82U A111G A120C A145C C150G C169U U176G, which reverse-splicing fitness is on record?
A: 0.00424

Q: With C82U A111G A120C A145C C150G C169U U176C as the variant, how does the reverse-splicing fitness read?
A: 0.0112

Q: With C82U A111C A145U C150U C169A U176A as the variant, how does the reverse-splicing fitness read?
A: 0.0126

Q: Which reverse-splicing fitness does the source give for C82U A111C A145U C150U C169A U176C here?
A: 0.011

Q: For C82U A111C A145U C150U C169A U176G, which reverse-splicing fitness is on record?
A: 0.00765

Q: Which reverse-splicing fitness does the source give for C82U A111G A120C A145U C150A C169G U176A here?
A: 0.0153

Q: With C82U A111G A120C A145U C150A C169G U176G as the variant, how does the reverse-splicing fitness read?
A: 0.00457

Q: With C82U A111G A120C A145U C150A C169G U176C as the variant, how does the reverse-splicing fitness read?
A: 0.0112

Q: With C82U A111C C150U C169U U176C as the variant, how does the reverse-splicing fitness read?
A: 0.0145

Q: For C82U A111C C150U C169U U176A, which reverse-splicing fitness is on record?
A: 0.0192

Q: Which reverse-splicing fitness does the source give for C82U A111C C150U C169U U176G here?
A: 0.00713

Q: With C82U A111G A120C A145C C150U C169U U176G as the variant, how does the reverse-splicing fitness read?
A: 0.00402

Q: With C82U A111G A120C A145C C150U C169U U176A as the variant, how does the reverse-splicing fitness read?
A: 0.0144

Q: With C82U A111G A120C A145C C150U C169U U176C as the variant, how does the reverse-splicing fitness read?
A: 0.00942

Q: With C82U A111G A120C A145C C150U U176G as the variant, how does the reverse-splicing fitness read?
A: 0.00465

Q: With C82U A111G A120C A145C C150U U176A as the variant, how does the reverse-splicing fitness read?
A: 0.0105

Q: With C82U A111G A120C A145C C150U U176C as the variant, how does the reverse-splicing fitness read?
A: 0.0114

Q: Which reverse-splicing fitness does the source give for C82U A111C A145U U176A here?
A: 0.0808

Q: For C82U A111C A145U U176G, which reverse-splicing fitness is on record?
A: 0.0238

Q: Which reverse-splicing fitness does the source give for C82U A111C A145U U176C here?
A: 0.103

Q: With C82U A111G A120C A145G C150A C169G U176A as the variant, how does the reverse-splicing fitness read?
A: 0.0237

Q: For C82U A111G A120C A145G C150A C169G U176C, which reverse-splicing fitness is on record?
A: 0.0213

Q: Which reverse-splicing fitness does the source give for C82U A111G A120C A145G C150A C169G U176G here?
A: 0.00547

Q: Which reverse-splicing fitness does the source give for C82U A111C A145U here?
A: 0.246

Q: For C82U A111G A120C A145G C169A U176C, which reverse-splicing fitness is on record?
A: 0.0205

Q: With C82U A111G A120C A145G C169A U176G as the variant, how does the reverse-splicing fitness read?
A: 0.00336

Q: With C82U A111G A120C A145G C169A U176A as the variant, how does the reverse-splicing fitness read?
A: 0.0153

Q: With C82U A111C C169G U176A as the variant, how does the reverse-splicing fitness read?
A: 0.0181

Q: Which reverse-splicing fitness does the source give for C82U A111C C169G U176C here?
A: 0.024

Q: With C82U A111C C169G U176G as the variant, how does the reverse-splicing fitness read?
A: 0.007

Q: For C82U A111G A120C A145C C169A, which reverse-splicing fitness is on record?
A: 0.00548

Q: Which reverse-splicing fitness does the source give for C82U A111G A120C A145C C169U here?
A: 0.0106

Q: For C82U A111G A120C A145C C169G, which reverse-splicing fitness is on record?
A: 0.00713

Q: For C82U A111G A120C A145C C150U C169G U176C, which reverse-splicing fitness is on record?
A: 0.00801

Q: For C82U A111G A120C A145C C150U C169G U176G, which reverse-splicing fitness is on record?
A: 0.00444

Q: For C82U A111G A120C A145C C150U C169G U176A, which reverse-splicing fitness is on record?
A: 0.0173

Q: Which reverse-splicing fitness does the source give for C82U A111C C169A U176C here?
A: 0.0243

Q: With C82U A111C C169A U176G as the variant, how does the reverse-splicing fitness read?
A: 0.00617

Q: Which reverse-splicing fitness does the source give for C82U A111C C169A U176A here?
A: 0.016

Q: For C82U A111G A120C A145G U176A, which reverse-splicing fitness is on record?
A: 0.0202

Q: For C82U A111G A120C A145G U176G, which reverse-splicing fitness is on record?
A: 0.00519

Q: Which reverse-splicing fitness does the source give for C82U A111G A120C A145G U176C here?
A: 0.0318

Q: Which reverse-splicing fitness does the source give for C82U A111G A120C A145G C150G U176A here?
A: 0.00545

Q: For C82U A111G A120C A145G C150G U176C, which reverse-splicing fitness is on record?
A: 0.00793

Q: Which reverse-splicing fitness does the source give for C82U A111G A120C A145G C150G U176G here?
A: 0.0033

Q: With C82U A111C A145G C150U C169A U176A as the variant, how does the reverse-splicing fitness read?
A: 0.0141

Q: For C82U A111C A145G C150U C169A U176C, which reverse-splicing fitness is on record?
A: 0.013

Q: Which reverse-splicing fitness does the source give for C82U A111C A145G C150U C169A U176G here?
A: 0.00752

Q: For C82U A111C C150U C169G U176A, which reverse-splicing fitness is on record?
A: 0.0119

Q: For C82U A111C C150U C169G U176C, which reverse-splicing fitness is on record?
A: 0.0161

Q: Which reverse-splicing fitness does the source give for C82U A111C C150U C169G U176G here?
A: 0.00752

Q: Which reverse-splicing fitness does the source give for C82U A111G A120C A145C C150G U176C here?
A: 0.00742

Q: With C82U A111G A120C A145C C150G U176G as the variant, how does the reverse-splicing fitness read?
A: 0.00231
